Measurements reported in patent publication US20220259593A1, “CONTROL OF MAMMALIAN GENE DOSAGE USING CRISPR” (The Regents of the University of California, priority 2019, published 2022).

System: K562 CRISPRi cells
Assay: Constant region variant library pooled growth screen, K562
Type: cell-based, human
How it was run: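 Pooled library transduced into K562 CRISPRi cells in duplicate, puromycin-selected, grown at >2000× coverage and sampled after 4 to 8 days. Phenotypes per targeting sequence:constant region pair were normalized to the unmodified-scaffold pairing to give relative activity.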

[1] = sgRNA constant region variant, activity relative to unmodified constant region cr995, mean CRISPRi activity
[2] = sgRNA constant region variants, activity relative to the original, un-modified constant region cr995

Row | Molecule | Mean relative activity [1] | Mean relative activity [2]
1 | cr954 (nucleic acid, listed as DNA, chemistry not fully specified) guide: GTTTAAGAGCTAAGCTGGAAACAGCATAGCAAGGTTAAATAAGGCTAGTCCGTTATCAAATTGAAAAATTGGCACCGAGTCGGTGCT | 0.01751 | –
2 | cr448 (nucleic acid, listed as DNA, chemistry not fully specified) guide: GTTTAAGAGCTAAGCTGGAAACAGCATAGCAACTTTAAATAAGCCTAGTGCGTTATCAACTTGAAAAAGTGGCACCGAGTCGGTGCT | 0.01746 | –
3 | cr382 (nucleic acid, listed as DNA, chemistry not fully specified) guide: GTTTAAGAGCTAAGCTGGAAACAGCATAGCAAGGTTAAATAACGCTAGTCGGTTATCAACTTGAAAAAGTGGCACCGAGTCGGTGCT | 0.01715 | –
4 | cr964 (nucleic acid, listed as DNA, chemistry not fully specified) guide: GTTTAAGAGCTAAGCTGGAAACAGCATAGCTAGTTTAAATAAGGCTAGTCCGTTATCAACTTGAGAAAGTGGCACCGAGTCGGTGCT | – | 1.033
5 | cr324 (nucleic acid, listed as DNA, chemistry not fully specified) guide: GTTTAAGAGCTAAGCTGGAAACAGCATAGCAAGTTTAAATAACGCTAGTCGGTTATCAACCTGAAAAGGTGGCACCGAGTCGGTGCT | 0.01711 | –
6 | cr504 (nucleic acid, listed as DNA, chemistry not fully specified) guide: GTTTAAGAGCTAAGCTGGAAACAGCATAGCAAGGTTAAATAAGGCTAGTCCGTTATCAACTGGAAACAGTGGCACCGAGTCGGTGCT | 0.01685 | –
7 | cr864 (nucleic acid, listed as DNA, chemistry not fully specified) guide: GTTTAAGAGCTAAGCTGGAAACAGCATAACAAGTTTAAATTAGGCTAGTCCGTTATCAACTTGAAAAAGTGGCACCGAGTCGGTGCT | 0.01678 | –
8 | cr031 (nucleic acid, listed as DNA, chemistry not fully specified) guide: GTAAAAGAGCTAAGCTGGAAACAGCATAGCAAGTTTAAATAAGGCTAGTCCGTTATCAACTTGAAAAAGTGGCACCGAGTCGGTGCT | 0.01677 | –
9 | cr042 (nucleic acid, listed as DNA, chemistry not fully specified) guide: GTGGAAGAGCTAAGCTGGAAACAGCATAGCAAGTTTAAATAAGGCTAGTCCGTTATCAACTTGAAAAAGTGGCACCGAGTCGGTGCT | 0.0164 | –
10 | cr841 (nucleic acid, listed as DNA, chemistry not fully specified) guide: GTTTAAGAGCTAAGCTGGAAACAGCATAGCAAGGTTAAATAAGGCTAGTCCGTTATCACCTTGAAAAAGGGGCACCGAGTCGGTGCT | 0.01636 | –
11 | cr336 (nucleic acid, listed as DNA, chemistry not fully specified) guide: GTTTAAGAGCTAAGCTGGAAACAGCATAGCAAGTTTAAATAAGGGTACTCCGTTATCAAATTGAAAAATTGGCACCCAGTGGGTGCT | 0.01616 | –
12 | cr263 (nucleic acid, listed as DNA, chemistry not fully specified) guide: GTTTAAGAGCTAAGCTGGAAACAGCATAGCAAGTTTAAATAAGGCTAGTCCGTTATCAACTTGAACAAGTGGCACCGAGTCGGTGCT | – | 1.033
13 | cr963 (nucleic acid, listed as DNA, chemistry not fully specified) guide: GTTTAAGAGCTAAGCTGGAAACAGCATAGCAAGTTTAAATAACGCTAGTCGGTTATCAACTTGAAAAAGTGGCGCTGAGTCAGCGCT | 0.01551 | –
14 | cr731 (nucleic acid, listed as DNA, chemistry not fully specified) guide: GTTTAAGAGCTAAGCTGGAAACAGCATAGCAAGGTTAAATAAGGCTAGTCCGTTATCAACTTGAAAAAGTGGTACCGAGTCGGTACT | 0.01505 | –
15 | cr170 (nucleic acid, listed as DNA, chemistry not fully specified) guide: GTTTAAGAGCTAAGCTGGAAACAGCATAGCAAGGTTAAATAAGGCTAGTCCGTTATCAACTTGAAAAAGTGACACCGAGTCGGTGTT | 0.01501 | –
16 | cr462 (nucleic acid, listed as DNA, chemistry not fully specified) guide: GTTTAAGAGCTAAGCTGGAAACAGCATAGCAAAATTAAATAAGGCTAGTCCGTTATCAACTTGAAAAAGTGGCACCGAGTCGGTGCT | 0.01488 | –
17 | cr261 (nucleic acid, listed as DNA, chemistry not fully specified) guide: GTTTAAGAGCTAAGCTGGAAACAGCATAGCAAGGTTAAATAAGGCTAGTCCGGTATCAACTTGAAAAAGTGGCACCGAGTCGGTGCT | 0.01441 | –
18 | cr384 (nucleic acid, listed as DNA, chemistry not fully specified) guide: GTTTAAGAGCTAAGCTGGAAACAGCATAGCAAGTTTAAATAAATCTAGTATGTTATCAACTTGAAAAAGTGGCACCGAGTCGGTGCT | 0.01438 | –
19 | cr413 (nucleic acid, listed as DNA, chemistry not fully specified) guide: GTTTAAGAGCTAAGCTGGAAACAGCATAGCAACTTTAAATAAGGCTAGTCCGTTATCAACTTGAAAAAGTGGCAACGAGTCGTTGCT | 0.01427 | –
20 | cr214 (nucleic acid, listed as DNA, chemistry not fully specified) guide: GTTTAAGAGCTAAGCTGGAAACAGCATAGCAAGTTTAAATAAGGCTAGTCCGTTATCAACTTGAGAAAGTGGCAACGAGTCGTTGCT | – | 1.033
21 | cr316 (nucleic acid, listed as DNA, chemistry not fully specified) guide: GTTTAAGAGCTAAGCTGGAAACAGCATAGCAAGTTTAAATAATGCTAGTCAGTTATCAACTTGAAAAAGTGGCACCAAGTTGGTGCT | 0.01422 | –
22 | cr041 (nucleic acid, listed as DNA, chemistry not fully specified) guide: GCTTCAGAGCTAAGCTGGAAACAGCATAGCAAGTTTAAATAAGGCTAGTCCGTTATCAACTTGAAAAAGTGGCACCGAGTCGGTGCT | 0.01415 | –
23 | cr562 (nucleic acid, listed as DNA, chemistry not fully specified) guide: GTTTAAGAGCTAAGCTGGAAACAGCATAGCGACTTTAAATAAGGCTAGTCCGTTATCAACTTGAGAAAGTGGCACCGAGTCGGTGCT | 0.01393 | –
24 | cr157 (nucleic acid, listed as DNA, chemistry not fully specified) guide: GTTTAAGAGCTAAGCTGGAAACAGCATAGCAACTTTAAATAAGGCTAGTCCGTTATCAACTTGAAAAAGTGGCATCGAGTCGATGCT | 0.01383 | –
25 | cr028 (nucleic acid, listed as DNA, chemistry not fully specified) guide: GTCCAAGAGCTAAGCTGGAAACAGCATAGCAAGTTTAAATAAGGCTAGTCCGTTATCAACTTGAAAAAGTGGCACCGAGTCGGTGCT | 0.01375 | –
26 | cr248 (nucleic acid, listed as DNA, chemistry not fully specified) guide: GTTTAAGAGCTAAGCTGGAAACAGCATAGCAAGTTTAAATAACGCTAGTCGGTTATCAACTTGAAAAAGTGGCACCGAGTCGGTGCT | 0.01369 | –
27 | cr310 (nucleic acid, listed as DNA, chemistry not fully specified) guide: GTTTAAGAGCTAAGCTGGAAACAGCATAGCAAGTTTAAATTAGGCTAGTCCGTTATCAACTTGAATAAGTGGCACCGAGTCGGTGCT | 0.01363 | –
28 | cr191 (nucleic acid, listed as DNA, chemistry not fully specified) guide: GTTTAAGAGCTAAGCTGGAAACAGCATAGCAACTTTAAATAAGGCTAGTCCGTTATCAACTTGAAAAAGTGGCAGCGAGTCGCTGCT | 0.01358 | –
29 | cr773 (nucleic acid, listed as DNA, chemistry not fully specified) guide: GTTTAAGAGCTAAGCTGGAAACAGCATAGCAAGGTTAAATAAGGCTTGTCCGTTATCAACTTGGAAAAGTGGCACCGAGTCGGTGCT | 0.01327 | –
30 | cr424 (nucleic acid, listed as DNA, chemistry not fully specified) guide: GTTTAAGAGCTAAGCTGGAAACAGCATAGCAAGTTTAAATAACGCTAGTCGGTTATCAACTTGAAAAAGTGGCGTCGAGTCGACGCT | 0.01319 | –
